The numbers were not newly measured in paper PMC10368991, which cites them from elsewhere.

The target in this series is LolB (Escherichia coli) (UniProt P61320).
Sequence of LolB (Escherichia coli) (P61320 22-207): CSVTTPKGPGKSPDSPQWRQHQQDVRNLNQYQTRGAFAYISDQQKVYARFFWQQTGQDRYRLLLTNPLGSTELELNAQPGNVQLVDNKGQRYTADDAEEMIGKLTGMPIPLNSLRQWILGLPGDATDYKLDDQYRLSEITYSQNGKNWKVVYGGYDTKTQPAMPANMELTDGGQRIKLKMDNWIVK

Sequence of LolA (P61316 22-203): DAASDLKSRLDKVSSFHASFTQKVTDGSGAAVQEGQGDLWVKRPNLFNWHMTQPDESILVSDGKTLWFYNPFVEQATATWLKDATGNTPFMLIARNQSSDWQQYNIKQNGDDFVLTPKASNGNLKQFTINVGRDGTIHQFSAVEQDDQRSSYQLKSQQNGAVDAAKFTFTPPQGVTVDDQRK

One may read the Kd as the free concentration of one partner at which half of the binding sites on the other are occupied at equilibrium, for simple one-to-one binding. As for LolA (from UniProt P61316), the Kd was 31.5 µM.
